# From article doi:10.1101/2020.11.04.368696v1
# Tested on: CC/C=C\CCO
# Assay: purified protein
# Conditions: 2 mM acetyl-CoA, 50 °C
substance,measurement,value
CATec3 (CAT3_ECOLIX) (Escherichia coli; Y20F),Km,6.4 ± 2.2 mM
same,kcat,2.3 ± 0.2 s⁻¹
